Biological target: the molecule itself
Test: SEC

Protein | stoichiometry N
human Hsp90α MC two-domain construct (domain or fragment) not shown | 2
human Hsp90α full-length protein with part of the charged linker between N and M removed (Hsp90Δ) (natural protein) not shown | 2
